Laboratory results published in the DeepSol protein solubility set.

Experiment: soluble on expression in E. coli; label from the status in PepcDB or PDB records

Sequence | soluble on expression in E. coli
MNKNSTSNKKNSKNKKKVDKLDLILNEFKNDIKNEKGENNQNDNKLLNGAIETNNNNNNNNNNSGNNRIHFDKEEIKEIKKKIILKEHVLEEQDNSSIRLLKNWPQLEKTYQTNPPCIPIDMIYGKDGKYPVGEILEYNNYNLSGQSLVEKKEREKLSIDYYEDLRKAAECHRQVRKHMQAFIKPGKKMIDIAQETERKTKELILAEKLKCGWGFPTGCSLNHCAAHYTPNYGDETVLKYDDVCKLDFGVHVNGYIIDCAFTIAFNEKYDNLIKATQDGTNTGIKEAGIDARMCDIGEAIQEAIESYEIELNQKIYPIKAISNLRGHSINKYIIHGGKCVPIVRQKEKNEIMEEGELFAIETFASTGKGYVNHENECSHYMRNPEKQFVPIRLNSAKTLLKVINDNFDTLPFCNRWLDDLGQTRHFMALKTLIDLNIVEPYPPLCDIKNSFTSQMEHTILLRPTCKEVLSRG | not soluble
KYSLLEIGLKKDNGSSETIKLKREAIKFENNTVKSYIIKDAKKIGYISIPSFYSDDSNPNALGAANELSKEILKLKNENIEGLIIDLRNNGGGSLYEAVGMSGLFIDIGPLFYVLERSGKATLTKDMNRGTVYDGPLCIMVNGYSASASEIFSAAMQDNHRALIVGEQTYGKATGQSISQLDTTKSISTFSATDNMGATKITEIKLYRTSGFSYQGKGVTPDIILPYL | not soluble
ASFIEQQVGGSLNEASLAHHIEQVLATNGNLFIGNSLFVRLVDALCKLPEGYPVYTNRGASGIDGLIATMAGIAKASGQPTVGVVGDISALHDLNSISLLSKINHPSILFVINNSGGAIFDMLPVEARVKEQFYRLSHNYEFSQVAAMFGIEYIRPFTWADLKAKLKLAYGRKSATIVEIKVNDQDG | not soluble
MSLNFLDFEQPIAELEAKIDSLTAVSRQDEKLDINIDEEVHRLREKSVELTRKIFADLGAWQIAQLARHPQRPYTLDYVRLAFDEFDELAGDRAYADDKAIVGGIARLDGRPVMIIGHQKGRETKEKIRRNFGMPAPEGYRKALRLMQMAERFKMPIITFIDTPGAYPGVGAEERGQSEAIARNLREMSRLGVPVVCTVIGEGGSGGALAIGVGDKVNMLQYSTYSVISPEGCASILWKSADKAPLAAEAMGIIAPRLKELKLIDSIIPEPLGGAHRNPEAMAASLKAQLLADLADLDVLSTEDLKNRRYQRLMSYGYALEHHHHHH | not soluble
MSLSQAHFSSWRGHQEFLAPHLIEGRAVRAFIGWAGVMIYDPTLDVIALAKEYARQYQCFAETCGRCAPGKFGGKILFDLLEKIDQGRGEESDLERLVEVGKLMMTTSKCEVGKTTPLPILDLLEAYRPLFVEALGNRSRKERSKKERYIAKITAPCIDACPAHVDIPAYIEGVRDHLLGDSLAATRKSMPLAQVCGRVCPHPCESACRRGDLDEPISIMELKRLGADYEKERHGGFIHPYPPKPRRKDKRVAIIGAGPAGLSSAYYLALEGIMSDVFEALPVLGGEVSVGVPEYRMPIDRYYHDIEAIKSLGVSFWTNHFVSAKELDEMRQKYDAIILATGARISKKLGVKGEEESLGGYAPAIPWLDQINLATKFNLAALPDLRGKSVVCVGGGFTSMDVVRCAVRLGAKRIVMLYRRDEATLIQNTSKEEYHEALEEGVEFLFQCAVQEIKSCGGEIKALLVEEYEVVYEEGARKPSLRRIEREPLFLECDLLIPAVSQEVDRSFIPKEWNLESTSWGSFKTNGKDFSTTLRGVFAAGDCEKGPLTIVNAVGQGKRAASVVSRFLEDGEITLTPEEEMEDWLKKEGVYDRSMPVVGWLAGLVRQESHKEEPLKRREDFREVNQGLSMQEAFAESERCMRCYYISMVALEGHHHHHH | not soluble
MSVLIPLVTVDGRDSVLLTKRSIHLRSHRGEVCFPGGRMDPGETTTETALRETFEEIGVNAESVEIWGHLKSVIRRQADFNVTPIVGYISDERVLENLVVNSDEVQAVFTIPIDELIKKAGLTKFQSKRMKYTLPSFDSTEFKVHHNAPNEYLHSTQRVWGLSGVMLHQALTLLNPDVYKHDLIVKFF | not soluble
YICRLPAEEIGFPEFYPRISRSMKSIKRPNLIYPAGKGLAVHIYPDKEDVRNYYIPIEPCLFQKLDSMLEEVEKLLIDVIHDQEINTNDPEEKKKLLVKALEKTCD | not soluble
EEFPFALGVQTLPQTCDEPKAHTSFQISLSVSYTGSRSASNMAIVDVKMVSGFIPLKPTVKMLERSNHVSRTEVSSNHVLIYLDKVSNQTLSLFFTVLQDVPVRDLKPAIVKVYDYYETDEFAIAEYNAPCSKDLGNA | soluble
MKFKSRVQMLNYVIGKKPDIMKTVDRRAEKEGVTDDNRLLDYKLLVISVLDAEAVYDEDRPIEEKKFSTSQEVDKYLETRFKEHMDSAWKEMFNK | not soluble
MCINIRLEKTRDIQSIHAITIAAFLDAPHTDHTEQFIVDALRDSGALSVSLIAEDSSKIIGHVALSPVTISDGSKDWYGLGPISVVPTDQNKGIGSKLMHAALRELNNLNANGCVLLGDPNYYRRFGFEPIGGLVLPDVPPEYFQATLLKGSYPTGVVTYHESFSAQS | not soluble
MGHHHHHHSHSHTIRDLKYTIENPRHFVDSHHQKPVNAIIEHVRDGSVVRALLLPDYYLVTVMLSGIKCPTFRREADGSETPEPFAAEAKFFTESRLLQRDVQIILESCHNQNILGTILHPNGNITELLLKEGFARCVDWSIAVYTRGAEKLRAAERFAKERRLRIWRDYVAPTANLDQK | not soluble
MSFATISVIGLGYIGLPTAAAFASRQKQVIGVDINQHAVDTINRGEIHIVEPDLASVVKTAVEGGFLRASTTPVEADAWLIAVPTPFKGDHEPDMTYVESAARSIAPVLKKGALVILESTSPVGSTEKMAEWLAEMRPDLTFPQQVGEQADVNIAYCPERVLPGQVMVELIKNDRVIGGMTPVCSARASELYKIFLEGECVVTNSRTAEMCKLTENSFRDVNIAFANELSLICADQGINVWELIRLANRHPRVNILQPGPGVGGHCIAVDPWFIVAQNPQQARLIRTAREVNDHKPFWVIDQVKAAVADCLAATDKRASELKIACFGLAFKPNIDDLRESPAMEIAELIAQWHSGETLVVEPNIHQLPKKLTGLCTLAQLDEALATADVLVMLVDHSQFKVINGDNVHQQYVVDAKGVWR | not soluble
MGSDKIHHHHHHMEKKFNLENYLSYGVQNIVKGIIKSTLSNPKESLFMAKYSIASKNAIKLRAEADKIGEHVPPFLIASITSKCNLHCKGCYARHVNSCTDEKTVNQLTDEDWRRVFYEAKDIGVGFILLLGGEPLMRPNVIKIAGEIEDILFPIFTNGTMIDEKYIKLFQKYRNLIPIFSIEGNESNTDKRRGTGIYSEIIKKMNEAYENKIIYGASITVTKENIEEVTSEKFLDKLYSRGCKSVIYVEYVPVSEKEKKIALEGKEREFLKDKLVELRYKYEDILFISFPGDEKSSGGCLAAGRGFFHINFNGGVEPCPFSPYSDTNLKDLSLKEAMNSPLFRKLRKDNVLMEEHSGGCVLFEKEDIVQSLLQK | not soluble
MNIGKPRKLGKTIEDIEEGDSLSLTESIEDKDLLLYLGLTNDANPLYIQHDYAQKTEYEKPIVPSIMLMGIITSAISKHLPGPGSHVVNFSVNFVEPVFHYETLTFQLEVIKVDKMKDVITISVEAVNEQENRVLDAVVMVQPPQVTIDELTEKEGTLTYE | soluble
MSSILIIGAGPTGLGAAHRLRGLGLENWHLFESTEQIGGLSASFVDDHGFTWDVGGHVLFSHYDYFDRVVEEALDGAWYEHQRECWVRIRETWVPYPFQNNIRHLPPDALEECLAGLKGLAGSPSLAANFREWMDRVFGAGIVKHFMEPYNRKVWGVPLHEMSREWIGERVSVIDLARIEKNIAEKTDDVNWGPNNTFKFPHKGGTGAIFSSIATRFQDRISFSHELTEVNLAARELGFSNGRRERYDSLITTIPLDIFIGLCRDVPESVREAASRLVHNSGLIVGIGVEGERRDSKCWMYFPEDNCPFYRVTNFHNYSPWNVPNGDTSRFFSLMCETTSSPHKPVNRAEIVETTIQGLINAGMLTESERERIISRYVIDIPYSYPVPTVGRDEALAVINPFLESQGVYSRGRFGAWKYEVGNMDHSFMQGVEVADRILNGADEPTVTGKGGDRLEHHHHHH | not soluble
MTQTASLFLQDSYREECLARITDVVEDGLLLDQTVFYPQGGGQAGDSGWLTLADGTRLRIADTRKGTEAGAGRDAILHIPAEGQATVLRAMKPGEVVLAQIDWVRRYRHMRLHTAAHMLCAVLPYPVNGCSITDEHARLDFVTSEPLSREAIDSALAAMVEAAHPVSIDTMSDDALRARPDLVRTMSVQPPMGAGQVRLVSIKDTDLQPCGGTHVANTEEVGVVRVSKMEKKSARTRRVVLVLG | not soluble
MGSDKIHHHHHHMKINRLTEIIVILLNKKLVTAKELADRFEVSTRTIYRDIETLSMSGVPVYMTKGKGGGISLIEEYSIDKAILSKKDKESLIVALKTLQATKYPEINSVVNKIGSIFGEQNFSNWIEIDFTEWGSNFNEDDKFTKIKEAILRRNTINFNYVNSLSSQTNRTVEPLKLMYKSKTWYLYGFCKLKDDFRIFRISRIRNLSIKDEVFSRKIIEEVCLNDSKVIKENTITLKLRFKEKMLFRVFDDFNKDLITKNEDDTYDVITEFPIGEWIYGYILSFGDNVEVLEPKDVRDNVITRLRELSKIYSL | not soluble
MNNYLKNLKEVFARIFRPNNRKSTRTYLQRSISYWRRNSIYLDNIYNKISTDTAQLRFKHVKITRNPGGVDSMVWYEHSDLAEVLTVSPNPLEVPVVFWSNVTRAMLRDGVAVVVPRWKNGRLVEIWLAKKTVTWTAESVELMLDDVAVELPLTDVWVFENPKLNVTAQLNQITELIDINLNALTEKLSDGNSSLRGFLKLPTKAADEHLKQQARDRVDSMLDLAKNGGIAYLEQGEEFQELSKDYSTASKEELEFLKSQLYNAHGINEKLFTCDYTEEQYRAYYSSVMKLYQRVYSEEINRKYFTKTARTQGNKLLVFFDMADMISFKDLVEGGFKSKYAGLMNSNEFRETYLGLPGYEGGEVFETNLNAVRIGAEESE | not soluble
MVTDEAGLLSNAQEEVMNGRLRAIRSSHAVEFAVVTLPSIGDAPLEDFTLKLARQWGVGNEKNNNGLLLVLVLDQRRVRFETGYGLEGYLPDGLLSRIIHDRMIPHFRSGNYAEGLSEGVLAVQQVLDGSYDVKPLEHHHHHH | not soluble
MGSDKIHHHHHHMSHHIEDLLNAWSAAPQDDWVLAVVTHVEGSAYRKVGAMMLIHGMGKSVGLVSGGCLEADLRRRAQKVIQTGQAASVCYDATDEADASYQLGCGGLVHLMLLPLCAANHYLHFQALKAALASQGRCHYQLMLTDESLSPGSLGAKVWTSQQALDDAKAGWQLSDFPRPGILQGQSMQGETVRGQSLQDESVQGESASLVVPLREHHRIAIFGGGLDAQPVCQIAQQLGWRVDVVDRRTSYAREYDFVGANIIKLPVSELPKNFWTRLDGAIVMQHNLELDAKALAAIHQHAKQLSYLALLGPGHRRDRVLALAGLEVASFGAYFSAPAGLALGGELPSSIALSILSECHGVLHGAKRVALKEVMA | not soluble
MAGWVNPSFDREKLRSVIDSAERVLSERDKAREEAIRLARDVVRYSGWAVTAVHKGSLEEAEGHLARAEEAAGMLRSILEPYPDLMTAGFANNAFSEYVEARLFIDIITGRGLSSPDELRVPIVPYIQGLGDLVGELRRLSLELVRRGEFRKAWSLLDIMEAIYLELRSLDYPEALLPGVRHKADVARRLVDDTKAMLADLESRSQLEYRLKEVLKRLEA | soluble
MRALALDVGLKRIGVALCIDKKIALPLDAVLRKNRNQAANEIKNLLKIHEISLLIVGIPKGGSSEEEMTRRIKHFVSLLEFDKEICFVDESGTSKEALGYGVANTRKKDGKLDSLSAFIMIKDYFALLEHHHHHH | not soluble
